Target: HOXD13 DNA binding domain (D13DBD) (Mus musculus, UniProt P70217)
Test: NMR

B1: HOXD13 duplex DNA (dsDNA)
DNA 1: CAACGTTAAAAC
DNA 2: GTTTTAACGTTG
binding result: binds

Reference: paper PMC4465062
